# “And” between values parts separate entries of the source, which are not always exact repeats. Equal entries are not always repeated. “Also recorded” adds a separate entry of the source.
# B1: rhBSSL: recombinant human bile-salt-stimulated lipase, SEQ ID. NO. 1, expressed from recombinant CHO cells; used in both clinical trials (protein, listed as Homo sapiens)
# chain: AKLGAVYTEGGFVEGVNKKLGLLGDSVDIFKGIPFAAPTKALENPQPHPGWQGTLKAKNFKKRCLQATITQDSTYGDEDCLYLNIWVPQGRKQVSRDLPVMIWIYGGAFLMGSGHGANFLNNYLYDGEEIATRGNVIVVTFNYRVGPLGFLSTGDANLPGNYGLRDQHMAIAWVKRNIAAFGGDPNNITLFGESAGGASVSLQTLSPYNKGLIRRAISQSGVALSPWVIQKNPLFWAKKVAEKVGCPVGDAARMAQCLKVTDPRALTLAYKVPLAGLEYPMLHYVGFVPVIDGDFIPADPINLYANAADIDYIAGTNNMDGHIFASIDMPAINKGNKKVTEEDFYKLVSEFTITKGLRGAKTTFDVYTESWAQDPSQENKKKTVVDFETDVLFLVPTEIALAQHRANAKSAKTYAYLFSHPSRMPVYPKWVGADHADDIQYVFGKPFATPTGYRPQDRTVSKAMIAYWTNFAKTGDPNMGDSAVPTHWEPYTTENSGYLEITKKMGSSSMKRSLRTNFLRYWTLTYLALPTVTDQEATPVPPTGDSEATPVPPTGDSETAPVPPTGDSGAPPVPPTGDSGAPPVPPTGDSGAPPVPPTGDSGAPPVPPTGDSGAPPVPPTGDSGAPPVPPTGDSGAPPVPPTGDAGPPPVPPTGDSGAPPVPPTGDSGAPPVTPTGDSETAPVPPTGDSGAPPVPPTGDSEAAPVPPTDDSKEAQMPAVIRF
# Legend:
# [1] = tested on: preterm infants born before week 32 of gestational age; experiment: Change in knee-to-heel length (knemometer), studies BVT.BSSL-020/-021; assay type: in vivo, human; settings: FAS and PP, combined data and by study, one week of treatment
# Experimental: The length of the patient's leg was measured from the knee to the heel using a knemometer provided to the sites. Knee-to-heel length was recorded in millimeters on the CRF. To the extent possible, length was measured at approximately the same time each day and by the same person. Three measurements were made and the mean value was entered on the CRF.
# Combined Analysis: • The combined statistical analysis of CFA data used the overall CFA values as calculated for each infant/treatment-period from each of the two individual studies. • Change in length (mm): Change in length was defined as the change in length from knee to heel from Day 1 to Day 7 in the first period and Day 10 to Day 16 in the second period. The Exploratory Efficacy Variables were: • Absorption of DHA and AA: Coefficients of absorption of DHA (C22:6 n-3) and AA (C20:4 n-6) measured in feces samples collected during the final 3 days (72 hours) of each treatment period. • Coefficients of absorption of DHA and AA were calculated using the same approach as used for CFA calculations, but using only the amounts of the individual (C22:6 n-3) and (C20:4 n-6) in samples for DHA and AA, respectively. 7.5.2 Efficacy Analysis Methodology […]
# [2] = tested on: preterm infants born before week 32 of gestational age; experiment: Growth velocity (body weight) in phase II crossover studies BVT.BSSL-020/-021; assay type: in vivo, human; settings: for Growth velocity, LS Mean / Growth velocity, LS Mean Difference (rhBSSL − Placebo) / Growth velocity, Maximum / Growth velocity, Mean (SD) / Growth velocity, Median / Growth velocity, Minimum: 7 days
# Experimental: Patients were randomized to infant formula/pasteurized breast milk supplemented with rhBSSL at a final concentration of 0.15 g/L, or to infant formula/pasteurized breast milk “supplemented” with sterile water for injection (as placebo) for the first 7 days. After a washout period of 2 days, the patient was “crossed over” to the other treatment regimen during a second 7-day treatment period. Collection of feces samples for CFA assessment were performed during the last 3 days (72 hours) of each treatment period.
# The patient's weight in grams was recorded each day using a scale with an accuracy of at least +/−5 grams and entered on the CRF. To the extent possible, body weight was measured at approximately the same time each day.
# • Growth velocity (g/kg/day): Growth velocity was defined as, for the first period, (the weight at the last assessment in the first period minus the weight at Day 1) divided by [the weight at Day 1 and (the day of the last assessment in the first period minus 1)], and for the second period, (the weight at the last assessment in the second period minus the weight at Day 10) divided by [the weight at Day 10 and (the day of the last assessment in the second period minus 10)]. The Secondary Efficacy Variables were: • CFA measured in food and feces samples collected between the tracer markers during the final 3 days (72 hours) of each treatment period. • CFA was calculated as [Fat (g/period) in food—Fat (g/period) in stool]/[Fat (g/period) in food)]*100. • Fat in food was calculated as ([Food (mL)−Vomit (mL)]*[Fat Content in Food (g/100 mL)]/100. This formula was based on the following assumptions: (a) fat content in vomit is the same as the fat content in food; (b) density of vomit is the same as density of food. • Fat content of food (formula or pasteurized breast milk) was determined using the same method as for the stool analysis and was performed by the same lab. Food (mL) and Vomit (mL) were calculated as the total amount of food or vomit recorded on or after the first tracer ingestion and prior to the second tracer ingestion. Vomit was recorded in grams on the CRF. Therefore, Vomit (mL) was calculated as Vomit (g)/Density. • There was one difference in the calculation of fat (g/period) in stool and fat content in food (g/100 mL) between the two studies. That difference relates to different contents of fatty acids in milk and formula, as described below: […]
# The primary efficacy outcome, growth velocity, was analyzed by an analysis of variance (ANOVA) with treatment, regimen (pasteurized breast milk or infant formula), period, sequence, and patient nested within regimen and sequence as factors. All main effects were tested against the residual mean square from the ANOVA model.
# [3] = Specific activity with PNPB substrate, sodium cholate as bile-salt activator; assay type: biochemical; settings: after HA-HPLC and SE-HPLC purification
# Experimental: Differences in functional properties are observed between rhBSSL-CHO and BSSL-MAM and from rhBSSL-OVI. The specific activity of rhBSSL-CHO is observed to be higher than that of the other forms of BSSL. The specific activities of BSSL-MAM and rhBSSL-OVI are only 80% of that of rhBSSL-CHO based on mass. Each sample is specifically purified by HA-HPLC and SE-HPLC before determination of specific activity. Specific activity is determined using 4-nitrophenyl ester butyric acid (PNPB) as a substrate for BSSL, and detection of the release of 4-nitrophenol. Briefly, a dilution series of rhBSSL (for example, from 20 to 160 ng activity/mL) is prepared in PBS with 0.1% BSA. 200 μl of these rhBSSL solutions is added to 25 μl of an activation solution containing 20 mM sodium cholate (as bile-salt activator) in PBS with 0.1% BSA. These solutions are preincubated in a spectrophotometer at 27° C. for 5 minutes. Just before measuring, 25 μl of a well-mixed substrate solution containing 5 mM PNPB in PBS-Tween is added. The formation of 4-nitrophenol can be detected by its absorbance at 400 nm and the increase in absorbance is measured during 90 seconds. The active amount of BSSL is determined using a standard curve of an rhBSSL reference standard.
# [4] = BVT.BSSL-020 (infant formula), FAS, 0.15 g/L
# [5] = BVT.BSSL-020 (infant formula), PP, 0.15 g/L
# [6] = BVT.BSSL-021 (pasteurized breast milk), FAS, 0.15 g/L
# [7] = BVT.BSSL-021 (pasteurized breast milk), PP, 0.15 g/L
# [8] = combined studies 020+021, FAS, 0.15 g/L in feed
# [9] = combined studies 020+021, PP, 0.15 g/L in feed
molecule,measurement,setting,value
B1,"Change in knee-to-heel length, rhBSSL versus placebo",[1],No noticeable differences; also recorded: No difference
same,"Growth velocity, LS Mean",[2]; [4],18.05 g/kg/day
same,"Growth velocity, LS Mean Difference (rhBSSL − Placebo)",[2]; [4],3.74 g/kg/day
same,"Growth velocity, Maximum",[2]; [4],25.5 g/kg/day
same,"Growth velocity, Mean (SD)",[2]; [4],18.06 g/kg/day and 18.06 (3.964) g/kg/day
same,"Growth velocity, Median",[2]; [4],18.39 g/kg/day
same,"Growth velocity, Minimum",[2]; [4],9.2 g/kg/day
same,"Growth velocity, LS Mean",[2]; [5],17.75 g/kg/day
same,"Growth velocity, LS Mean Difference (rhBSSL − Placebo)",[2]; [5],2.30 g/kg/day
same,"Growth velocity, Maximum",[2]; [5],24.0 g/kg/day
same,"Growth velocity, Mean (SD)",[2]; [5],17.79 (4.013) g/kg/day
same,"Growth velocity, Median",[2]; [5],17.98 g/kg/day
same,"Growth velocity, Minimum",[2]; [5],9.2 g/kg/day
same,"Growth velocity, LS Mean",[2]; [6],15.58 g/kg/day
same,"Growth velocity, LS Mean Difference (rhBSSL − Placebo)",[2]; [6],1.95 g/kg/day
same,"Growth velocity, Maximum",[2]; [6],26.5 g/kg/day
same,"Growth velocity, Mean (SD)",[2]; [6],15.54 g/kg/day and 15.54 (4.880) g/kg/day
same,"Growth velocity, Median",[2]; [6],15.95 g/kg/day
same,"Growth velocity, Minimum",[2]; [6],7.5 g/kg/day
same,"Growth velocity, LS Mean",[2]; [7],16.47 g/kg/day
same,"Growth velocity, LS Mean Difference (rhBSSL − Placebo)",[2]; [7],1.71 g/kg/day
same,"Growth velocity, Maximum",[2]; [7],26.5 g/kg/day
same,"Growth velocity, Mean (SD)",[2]; [7],16.16 (4.856) g/kg/day
same,"Growth velocity, Median",[2]; [7],16.80 g/kg/day
same,"Growth velocity, Minimum",[2]; [7],8.3 g/kg/day
same,"Growth velocity, LS Mean",[2]; [8],16.86 g/kg/day
same,"Growth velocity, LS Mean Difference (rhBSSL − Placebo)",[2]; [8],2.93 g/kg/day
same,"Growth velocity, Maximum",[2]; [8],26.5 g/kg/day
same,"Growth velocity, Mean (SD)",[2]; [8],16.92 (4.540) g/kg/day
same,"Growth velocity, Median",[2]; [8],16.84 g/kg/day
same,"Growth velocity, Minimum",[2]; [8],7.5 g/kg/day
same,"Growth velocity, LS Mean",[2]; [9],17.15 g/kg/day
same,"Growth velocity, LS Mean Difference (rhBSSL − Placebo)",[2]; [9],2.08 g/kg/day
same,"Growth velocity, Maximum",[2]; [9],26.5 g/kg/day
same,"Growth velocity, Mean (SD)",[2]; [9],17.08 (4.424) g/kg/day
same,"Growth velocity, Median",[2]; [9],16.84 g/kg/day
same,"Growth velocity, Minimum",[2]; [9],8.3 g/kg/day
same,Relative increase of growth velocity compared to the LS mean for placebo,"[2]; combined studies, PP",13.8%
same,Relative increase of growth velocity compared to the LS mean for placebo,"[2]; formula-fed infants (BVT.BSSL-020), PP",14.9%
same,Specific activity compared with the other forms of BSSL,[3],higher

# Reference: patent US8986682B2, “Method to increase the absorption of unsaturated fatty acids by human infants” (Swedish Orphan Biovitrum AB (publ), priority 2010, dated 2015)
